These results are taken from patent US9951123B2, “Anti-LPS O11 antibody” (priority 2013, dated 2018).

Values after ≈ are worked out from the molar mass of the structure shown.

For assay [1], the system named is Pseudomonas aeruginosa clinical isolates No. 12 and No. 31. The assay is described as follows: Minimum inhibitory concentration of LVFX against clinical isolates. Type of assay: cell-based.
Assay [2] has as its system Pseudomonas aeruginosa ATCC 29260. Kind of assay: Opsonophagocytic killing activity against Pseudomonas aeruginosa ATCC 29260. The format is cell-based. The settings on record: antibody culture supernatant samples. On the procedure:
As a buffer for measurement, 0.1% gelatin/1% FBS/Hank's balanced salt solution (opsonization buffer) was prepared. HL60 as effector cells were cultured in 10% FBS-containing RPMI 1640 (Invitrogen) supplemented with 0.8% N,N-dimethylformamide for 5 or 6 days to prepare neutrophil-like, differentiated HL60 in an opsonization buffer. As the target bacteria, Pseudomonas aeruginosa ATCC 29260 cultured on MHA was prepared by suspending it in the opsonization buffer. As a complement, Baby Rabbit Serum (Cederlane) was prepared by dissolving it with ice-cold distilled water. Bacterial suspension (final concentration of 2×10^4 cells/ml) was mixed with antibody culture supernatant or purified antibody, allowed to stand at 4° C. for 30 minutes, and the prepared neutrophil-like, differentiated HL60 cells (final concentration of 4×10^6 cells/ml) and a complement (final concentration 10%) were added thereto, followed by incubation with gentle agitation at 37° C. for 1 hour under 5% CO2. After the incubation, each sample was spread on MHA, and colonies were counted on the next day.
Opsonophagocytic killing activity of each of cNo.76, c#1G5M, c#1G5, c#4C13KM, c#4C13, Meiji 1640, Meiji 1656, and 1BO11 hIgG1 against Pseudomonas aeruginosa ATCC 29260 was measured in accordance with the method of 1)-3-2. The opsonophagocytic killing activity was expressed in terms of 50% minimum growth inhibitory concentration.
In accordance with the method of 1)-3-2, the opsonophagocytic killing activities of h#1G5-H2/L2, h#1G5-H3/L3, h#4C13K-H2/L2, and h#4C13k-H3/L3 against ATCC 29260 were measured, and then compared to those of c#1G5 and c#4C13. The opsonophagocytic killing activity was expressed in terms of 50% minimum growth inhibitory concentration.

A word on the MIC: it is the lowest concentration found to suppress growth. Lower therefore signals inhibition by little substance. Turning to `C[C@H]1COc2c(N3CCN(C)CC3)c(F)cc3c(=O)c(C(=O)O)cn1c23` [LVFX, levofloxacin], the MIC in assay [1] (No. 12 strain) was over 128 mg/L; in assay [1] (strain No. 31) it was 32 mg/L (≈ 88.6 µM).

B1: No.76: mouse monoclonal anti-LPS O11 antibody prepared using pJON mIgG2a and pJON mIgκ; variable regions SEQ ID NO: 8 and 4 (antibody, V domains shown)
VH: MGWSCIILFLVAAATGVHSQVQLQQPGAELVKPGASVNLSCKSSGYTFTNYWINWVKQRPGQGLEWIGDIYPGTSTTNYNEKFKNKATLTVDTSSSTAYMQLSSLTSDDSAVYYCTRIYYDYDGYYFDYWGQGTTLTVSS
VL: MESQTLVFISILLWLYGADGNIVMTQSPKSMSMSVGERVTLSCKASENVGTSVSWYQEKPEQSPKLLIFGASNRYTGVPDRFTGSGSATDFTLTISSVQAEDLADYHCGQSYSYPYTFGGRTKLEIKRA
modifications: Heavy chain variable of No.76; Light chain variable of No.76
As to B1, the “opsonophagocytic killing activity in screening” value in assay [2] is “strong opsonophagocytic killing activity”.

B2: #4C12: anti-LPS O11 monoclonal antibody prepared using pJON mIgG2a-hIgG1 and pJON mIgκ; variable regions SEQ ID NO: 24 and 20 (antibody, V domains shown)
VH: MGWSCIILFLVAAATGVQSQVQLQQPGAELVKPGASVKLSCKASGYTFTTYWINWMQQRPGQGLEWIGNIYPGTRSSNYNEKFKNKATLTVDTSSSTAYMQLNSLTSDDSAVYYCTRVYYDHVGYYFDYWGQGTTLTVSS
VL: MESQTLVFISILLWLYGADGNIVMTQSPKSMSMSVGERVTLSCKASENVGVSVSWYQQKPEQSPKLLIYGASNRCTGVPDRFTGSRSATDFTLTVSNVQAEDLADYHCGQSYSYPYTFGGGTRLEIKRA
modifications: Heavy chain variable of #4C12; Light chain variable of #4C12
Regarding B2, the “opsonophagocytic killing activity in screening” value in assay [2] is on record as “strong opsonophagocytic killing activity”.

B3: #1G5: anti-LPS O11 monoclonal antibody prepared using pJON mIgG2a-hIgG1 and pJON mIgκ; variable regions SEQ ID NO: 16 and 12 (antibody, V domains shown)
VH: MGWSCIILFLVAAATGVHSQVQLQQPGAELVKPGASVKLSCKASGYTFTSYWINWVKQRPGQGLEWIGNIYPGSSSINYNEKFKSKATLTVDTSSSTAYMQLSSLTSDDSAVYYCSRTIYNYGSSGYNYAMDYWGQGTSVIVSS
VL: MESQTLVFISILLWLYGSDGNIVMTQSPKSMSMSVGERVTLSCKASENVGNSVSWYQQKAEQSPKPLIYGASNRYTGVPDRFTGSGSATDFTLTISSVQAEDLADYHCGQSYSYPYTFGGGTKLEIKRA
modifications: Heavy chain variable of #1G5; Light chain variable of #1G5
With B3, in assay [2], the “opsonophagocytic killing activity in screening” value was “strong opsonophagocytic killing activity”.
